Data reported in article PMC11046469, “Leveraging a Phage-Encoded Noncanonical Amino Acid: A Novel Pathway to Potent and Selective Epigenetic Reader Protein Inhibitors” (ACS Central Science, 2024).

molecular target: T1, ENL YEATS domain (AviSUMO-ENL YEATS) (Homo sapiens, UniProt Q03111); test: Phage panning of BuK-containing 7-mer library against AviSUMO-ENL YEATS with Illumina NGS abundance; conditions: sheet ENLR3: round 3 of panning against ENL YEATS; TAG = amber codon (BuK); 7-mer library positions V1-V7
T1 construct: encoding ENL YEATS (aa 1−148) was cloned in pET28a-; made in house; host or cells: E. coli BL21(DE3pLysS), co-expressed with BirA (pBirAcm)
T1 sequence (Q03111 1-148): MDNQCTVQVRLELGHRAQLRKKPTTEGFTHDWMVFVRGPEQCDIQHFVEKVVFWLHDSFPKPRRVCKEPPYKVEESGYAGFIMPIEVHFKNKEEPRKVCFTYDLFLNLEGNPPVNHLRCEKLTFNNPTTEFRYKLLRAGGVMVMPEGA
Description: We utilized a previously established amber-obligate 7-mer phage display library to develop a phage display library enriched with BuK-containing 7-mer peptides. For detailed characterizations, including analysis of amber codon percentages, NNK trinucleotide analysis, and amino acid distribution at each position within the library, please refer to the work of Tharp et al.[10] Furthermore, the comprehensive raw NGS data for the amber-obligate 7-mer phage library can be found in the NCBI’s Sequence Read Archive, under the accession ID PRJNA606283. To produce the BuK-containing 7-mer phage library, the phages were produced in the presence of 5 mM BuK using TOP10 cells harboring the following three plasmids: (1) pADL-gIII, which contains the 7-mer amber-obligate peptide-coding DNA library positioned at the N-terminus of M13 pIII gene; (2) pCDF-BuKRS, which encodes BuKRS and its cognate tRNA^Pyl for the genetic incorporation of BuK at amber codons in the 7-mer library; and (3) M13KO7TAA, a helper phage plasmid engineered to have a TAA mutation at pIII so that its lack of a functional pIII allows an efficient multivalent display of the 7-mer library. The ENL YEATS domain containing an N-terminal AviSUMO-Tag was recombinantly expressed in E. coli together with BirA, a biotin ligase, for site-specific biotinylation at the AviTag. The biotinylated AviSUMO-ENL YEATS was immobilized on streptavidin-coated magnetic beads for panning with the BuK-containing phages. […] Phage libraries collected from the first and third rounds of selection were sequenced using Illumina next generation sequencing (NGS) and all sequenced data are available through the NCBI SRA database (Project PRJNA1041845). To prevent possible sequencing errors from affecting conclusions, sequences were filtered using previously published paired-end processing,[10] where any sequences containing more than one mismatch in the nonlibrary region or any mismatch in the library region were discarded. The NGS data provided DNA sequences encompassing both the library and nonlibrary regions. In our analysis, we included data from the nonlibrary region as a stringent quality control measure to filter out low-quality data. For our analysis, we utilized 51 nucleotides from the NGS output, with 21 nucleotides encoding the library region and an additional 30 nucleotides for the nonlibrary region. […] Among all the sequences, only 85 of them contained more than 100 copies (blue area), while the remaining sequences all had low abundances (<10^2 copies, dark and light gray areas), which constituted 85.2% of the first round population. After three panning rounds, the selection converged to two highly enriched sequences: YDVYCYX (ENL-S1) and WWIIEXG (ENL-S2, X denotes BuK). Out of 551 different unique sequences collected from the third round, ENL-S1 and ENL-S2 represented 85% of the entire library (Figure 2A and Figures S6–S8). Both peptide sequences corresponded to their own unique DNA sequence, rather than there being varying codons encoding the same amino acids (Figure S7). […] Two motifs were found in the majority of sequences with high abundance (greater than 0.1%) (Figure S6). A Y(C/L)Y pattern was identified in the residues adjacent to BuK in four of the eight top sequences. Also, an H(L/Y)(T/V)LFXG (X denotes BuK) motif was observed, albeit at lower abundances, in two of the top sequences. In the initial round of selection, we observed that only a small percentage of phages were eluted, which aligns with typical outcomes in phage selection experiments since only a low copy number of phages can bind to the target.[10],[45] With each successive round of selection, we noted a gradual increase in the percentage of phages eluted. This incremental, rather than sharp, increase was attributed to the intensification of selection pressures, such as the application of more stringent washing protocols. We aimed for the incremental increase to retain potent clones with low copy numbers from the previous selection cycle. […]

Row | Substance | n (number of NGS reads of the unique amino acid sequence) | percent (share of sequence reads)
1 | ATAGSFHYL | 1 | 0.0009106%
2 | CCWTAGGGN | 2 | 0.001821%
3 | CHNWICTAG | 1 | 0.0009106%
4 | CPCWTAGLL | 1 | 0.0009106%
5 | CWIIETAGG | 22 | 0.02003%
6 | CWVCLPH | 1 | 0.0009106%
7 | CYDLCYG | 1 | 0.0009106%
8 | CYPTAGKCC | 1 | 0.0009106%
9 | CYVCRFL | 1 | 0.0009106%
10 | DLVYCYTAG | 1 | 0.0009106%
11 | DMFRSTAGI | 1 | 0.0009106%
12 | FDVYCYTAG | 2 | 0.001821%
13 | FEISEWTAG | 2 | 0.001821%
14 | FKCTAGNGC | 1 | 0.0009106%
15 | FLFDTTAGT | 1 | 0.0009106%
16 | FLTRCML | 1 | 0.0009106%
17 | GRAVDTAGG | 1 | 0.0009106%
18 | HAIYFYTAG | 1 | 0.0009106%
19 | HCGPRTAGD | 10 | 0.009106%

Row | Substance | n (number of NGS reads of the unique amino acid sequence) | percent (share of sequence reads)
20 | HCVLFTAGG | 1 | 0.0009106%
21 | HHVLFTAGG | 1 | 0.0009106%
22 | HIKCTAGII | 1 | 0.0009106%
23 | HLNLFTAGG | 2 | 0.001821%
24 | HLTFFTAGG | 3 | 0.002732%
25 | HLTLFTAGC | 2 | 0.001821%
26 | HLTLFTAGG | 2802 | 2.552%
27 | HLTLFTAGV | 4 | 0.003642%
28 | HMTLFTAGG | 1 | 0.0009106%
29 | HSIYCYTAG | 1 | 0.0009106%
30 | HSWFTAGDG | 1 | 0.0009106%
31 | HTRSMTAGN | 1 | 0.0009106%
32 | HYFLFTAGG | 1 | 0.0009106%
33 | HYVLFTAGG | 612 | 0.5573%
34 | ILIYTAGGD | 4 | 0.003642%
35 | IRCHPWTAG | 1 | 0.0009106%
36 | KMPFTAGIS | 1 | 0.0009106%
37 | KVTAGGGGV | 1 | 0.0009106%
38 | LAYCTAGHN | 2 | 0.001821%

The remaining lines, values ahead:

Row | n (number of NGS reads of the unique amino acid sequence) | percent (share of sequence reads) | Substance
39 | 10 | 0.009106% | CDVYCYTAG
40 | 1 | 0.0009106% | CFFTAGIMC
41 | 56 | 0.05099% | CHMLCTAGD
42 | 7 | 0.006374% | CLPWTAGSS
43 | 1 | 0.0009106% | CTAGGGSLF
44 | 1 | 0.0009106% | CTYVITAGV
45 | 1 | 0.0009106% | CWGFEKTAG
46 | 1 | 0.0009106% | CWSTAGNGD
47 | 74 | 0.06739% | CWVCTAGPH
48 | 21 | 0.01912% | CYDLCTAGG
49 | 7 | 0.006374% | DDVYCYTAG
50 | 1 | 0.0009106% | FLYTAGMPV
51 | 1 | 0.0009106% | FTAGIYTAA
52 | 1 | 0.0009106% | FTWSTAGED
53 | 759 | 0.6912% | HAIYCYTAG
54 | 13 | 0.01184% | HDVYCYTAG

Row | n (number of NGS reads of the unique amino acid sequence) | percent (share of sequence reads) | Substance
55 | 2 | 0.001821% | HFTLFTAGG
56 | 4 | 0.003642% | HLTLFTAGD
57 | 3 | 0.002732% | HLTLFYG
58 | 1 | 0.0009106% | HPIYCYTAG
59 | 2 | 0.001821% | HSTLFTAGG
60 | 1 | 0.0009106% | HTAGSFCRL
61 | 2 | 0.001821% | HVIYCYTAG
62 | 1 | 0.0009106% | HYVLFTAGW
63 | 1 | 0.0009106% | HYVLFYG
64 | 1 | 0.0009106% | IGSIHYTAG
65 | 1 | 0.0009106% | IHVYCTAGV
66 | 1 | 0.0009106% | ILATAGSVN
67 | 28 | 0.0255% | IMCYPFTAG
68 | 1 | 0.0009106% | IQTAGITAS
69 | 9 | 0.008196% | KCGPRTAGD
70 | 1 | 0.0009106% | LCGPRTAGD
